Test results taken from patent US20220275049A1 (AGENUS, published 2022).
Square brackets hold non-standard residues; d marks the D form. Ends that are not written are not given here. pY = N[C@@H](Cc1ccc(OP(=O)(O)O)cc1)C(=O)O; pT = C[C@@H](OP(=O)(O)O)[C@H](N)C(=O)O; pS = N[C@@H](COP(=O)(O)O)C(=O)O

B1: RPRsPTGPSNSFL (peptide)
peptide: RPR[pS]PTGPSNSFL
B2: SLHDIQLsL (peptide)
peptide: SLHDIQL[pS]L
B3: TVFsPTLPAA (peptide)
peptide: TVF[pS]PTLPAA
B4: RPRIPsPIGF (peptide)
peptide: RPRIP[pS]PIGF
B5: RPKtPPVVI (peptide)
peptide: RPK[pT]PPVVI
B6: SLFsPQNTL (peptide)
peptide: SLF[pS]PQNTL
B7: SIMsPEIQL (peptide)
peptide: SIM[pS]PEIQL
B8: RLSsPLHFV (peptide)
peptide: RLS[pS]PLHFV
B9: YRYsPQSFL (peptide)
peptide: YRY[pS]PQSFL
B10: SVKPRRTsL (peptide)
peptide: SVKPRRT[pS]L
B11: yLQSRYYRA (peptide)
peptide: [pY]LQSRYYRA
B12: SLFsSEESNL (peptide)
peptide: SLF[pS]SEESNL
B13: RIYQyIQSR (peptide)
peptide: RIYQ[pY]IQSR
B14: SLFsGDEENA (peptide)
peptide: SLF[pS]GDEENA
B15: AVRPTRLsL (peptide)
peptide: AVRPTRL[pS]L
B16: RLLsAAENFL (peptide)
peptide: RLL[pS]AAENFL-OH
modifications: N-terminus assumed
SMILES: CC(C)C[C@H](NC(=O)[C@H](Cc1ccccc1)NC(=O)[C@H](CC(N)=O)NC(=O)[C@H](CCC(=O)O)NC(=O)[C@H](C)NC(=O)[C@H](C)NC(=O)[C@H](COP(=O)(O)O)NC(=O)[C@H](CC(C)C)NC(=O)[C@H](CC(C)C)NC(=O)[C@@H](N)CCCNC(=N)N)C(=O)O
B17: RLLsFQRYL (peptide)
peptide: RLL[pS]FQRYL
B18: SISStPPAV (peptide)
peptide: SISS[pT]PPAV
B19: SMSsLSREV (peptide)
peptide: SMS[pS]LSREV
B20: SISsMEVNV (peptide)
peptide: SIS[pS]MEVNV
B21: LPRPAsPAL (peptide)
peptide: LPRPA[pS]PAL
B22: RPAFFsPSL (peptide)
peptide: RPAFF[pS]PSL
B23: SLQsLETSV (peptide)
peptide: SLQ[pS]LETSV
B24: VLFSsPPQM (peptide)
peptide: VLFS[pS]PPQM
B25: SLFsSEESNLGA (peptide)
peptide: SLF[pS]SEESNLGA
B26: RPYsPPFFSL (peptide)
peptide: RPY[pS]PPFFSL
B27: RRSsFLQVF (peptide)
peptide: RRS[pS]FLQVF
B28: RPFsPREAL (peptide)
peptide: RPF[pS]PREAL
B29: RPRsISVEEF (peptide)
peptide: RPR[pS]ISVEEF
B30: LPAsPRARL (peptide)
peptide: LPA[pS]PRARL
B31: RPRPVsPSSLL (peptide)
peptide: RPRPV[pS]PSSLL
B32: RPDVAKRLsL (peptide)
peptide: RPDVAKRL[pS]L
B33: KRFsGTVRL (peptide)
peptide: KRF[pS]GTVRL
B34: SPAsPKISL (peptide)
peptide: SPA[pS]PKISL
B35: SPFKRQLsL (peptide)
peptide: SPFKRQL[pS]L
B36: RRIsDPQVF (peptide)
peptide: RRI[pS]DPQVF
B37: RRFsGTAVY (peptide)
peptide: RRF[pS]GTAVY
B38: KIKsFEVVF (peptide)
peptide: KIK[pS]FEVVF
B39: RRGsFEVTL (peptide)
peptide: RRG[pS]FEVTL
B40: RIYQyIQSRF (peptide)
peptide: RIYQ[pY]IQSRF
B41: RRPsLLSEF (peptide)
peptide: RRP[pS]LLSEF
B42: RRLsFLVSY (peptide)
peptide: RRL[pS]FLVSY
B43: FRRsPTKSSLDY (peptide)
peptide: FRR[pS]PTKSSLDY

Target: T1, biotinylated HLA-A*02:01 with β2m (human, biotinylated)
T1 construct: HLA heavy chain mixed with excess β2m; the peptide is titrated onto it
Experiment: AlphaScreen, peptide titrated on biotinylated HLA + b2m
Protocol: (§1) An AlphaScreen® assay was used to evaluate the binding of peptides to HLA molecules. Donor beads conjugated with streptavidin, and acceptor beads conjugated with the anti-human HLA class I antibody W6/32, were used to assess peptide binding. Biotinylated HLAs (A*02:01, B*07:02, C*07:01, or C*07:02) were mixed with a fixed excess of β2m and the mixtures added to each well of a 384-well microplate. Serial dilutions of the synthesized phosphopeptides were added to the wells, and the resultant HLA/β2/peptide mixtures were incubated overnight at 18° C. W6/32 conjugated acceptor beads were subsequently added to the wells, and the mixture was incubated for 1 hour at 21° C. Streptavidin conjugated donor beads were then added to the wells, and the mixture was incubated for a further 1 hour at 21° C.
(§2) The microplate was read using the PerkinElmer® plate reader, and data were plotted using the Michaelis-Menten equation to determine the Kd for each phosphopeptide.

Q: Does B1 bind?
A: no binding

Q: For B2, which Kd is on record?
A: 0.0319 µM

Q: B3 was tested. Which Kd did it give?
A: 0.0469 µM

Q: Does B4 bind?
A: no binding

Q: Does B5 bind?
A: no binding

Q: With B6 as the binder, how does the Kd read?
A: 0.116 µM

Q: With B7 as the binder, how does the Kd read?
A: 0.084 µM

Q: For B8, which Kd is on record?
A: 0.0906 µM

Q: Does B9 bind?
A: no binding

Q: Does B10 bind?
A: no binding

Q: How did the Kd turn out when B11 was run?
A: 0.255 µM

Q: With B12 as the binder, how does the Kd read?
A: 0.466 µM

Q: Does B13 bind?
A: no binding

Q: Which Kd does the source give for B14 here?
A: 0.278 µM

Q: Does B15 bind?
A: no binding

Q: How did the Kd turn out when B16 was run?
A: 0.114 µM

Q: How did the Kd turn out when B17 was run?
A: 0.0497 µM

Q: With B18 as the binder, how does the Kd read?
A: 0.169 µM

Q: For B19, which Kd is on record?
A: 0.927 µM

Q: For B20, which Kd is on record?
A: 0.306 µM

Q: Does B21 bind?
A: no binding

Q: Does B22 bind?
A: no binding

Q: How did the Kd turn out when B23 was run?
A: 0.121 µM

Q: For B24, which Kd is on record?
A: 0.227 µM

Q: With B25 as the binder, how does the Kd read?
A: 0.149 µM

Target: T2, biotinylated HLA-B*07:02 with β2m (human, biotinylated)
T2 construct: also called B*07:02 (as the text prints it)
Experiment: as above
Protocol: as §1, §2

Q: For B26, which Kd is on record?
A: 0.157 µM

Q: Does B27 bind?
A: no binding

Q: B1 was tested. Which Kd did it give?
A: 0.36 µM

Q: With B2 as the binder, how does the Kd read?
A: 0.642 µM

Q: B28 was tested. Which Kd did it give?
A: 0.163 µM

Q: How did the Kd turn out when B29 was run?
A: 0.0861 µM

Q: Does B3 bind?
A: no binding

Q: With B30 as the binder, how does the Kd read?
A: 0.0835 µM

Q: With B4 as the binder, how does the Kd read?
A: 0.0844 µM

Q: Which Kd does the source give for B31 here?
A: 0.186 µM

Q: B32 was tested. Which Kd did it give?
A: 0.216 µM

Q: Does B33 bind?
A: no binding

Q: For B34, which Kd is on record?
A: 0.275 µM

Q: Does B7 bind?
A: no binding

Q: Which Kd does the source give for B35 here?
A: 0.0647 µM

Q: Does B9 bind?
A: no binding

Q: Does B36 bind?
A: no binding

Q: Does B12 bind?
A: no binding

Q: Does B14 bind?
A: no binding

Q: With B15 as the binder, how does the Kd read?
A: 0.117 µM

Q: Does B17 bind?
A: no binding

Q: Does B37 bind?
A: no binding

Q: Does B18 bind?
A: no binding

Q: Does B19 bind?
A: no binding

Q: Does B38 bind?
A: no binding

Q: Does B20 bind?
A: no binding

Q: Does B39 bind?
A: no binding

Q: B21 was tested. Which Kd did it give?
A: 0.223 µM

Q: Which Kd does the source give for B22 here?
A: 0.398 µM

Q: Does B23 bind?
A: no binding

Q: Does B24 bind?
A: no binding

Q: Does B25 bind?
A: no binding

Target: biotinylated HLA-C*07:01 with β2m (human, biotinylated)
Experiment: as above
Protocol: as §1, §2

Q: B2 was tested. Which Kd did it give?
A: 0.962 µM

Q: Does B3 bind?
A: no binding

Q: B40 was tested. Which Kd did it give?
A: 0.477 µM

Q: Does B10 bind?
A: no binding

Q: B41 was tested. Which Kd did it give?
A: 0.804 µM

Q: With B36 as the binder, how does the Kd read?
A: 0.0114 µM

Q: Does B11 bind?
A: no binding

Q: Does B12 bind?
A: no binding

Q: Does B14 bind?
A: no binding

Q: Which Kd does the source give for B42 here?
A: 1.57 µM

Q: For B37, which Kd is on record?
A: 2.18 µM

Q: Does B18 bind?
A: no binding

Q: Does B19 bind?
A: no binding

Q: Does B20 bind?
A: no binding

Q: For B39, which Kd is on record?
A: 0.0166 µM

Q: Does B23 bind?
A: no binding

Q: Does B25 bind?
A: no binding

Target: biotinylated HLA-C*07:02 with β2m (human, biotinylated)
Experiment: as above
Protocol: as §1, §2

Q: How did the Kd turn out when B27 was run?
A: 0.019 µM

Q: For B2, which Kd is on record?
A: 0.413 µM

Q: Does B3 bind?
A: no binding

Q: With B40 as the binder, how does the Kd read?
A: 0.377 µM

Q: Does B10 bind?
A: no binding

Q: With B41 as the binder, how does the Kd read?
A: 0.0357 µM

Q: How did the Kd turn out when B36 was run?
A: 0.0199 µM

Q: Does B12 bind?
A: no binding

Q: Does B14 bind?
A: no binding

Q: B42 was tested. Which Kd did it give?
A: 0.113 µM

Q: How did the Kd turn out when B43 was run?
A: 0.0986 µM

Q: B37 was tested. Which Kd did it give?
A: 0.0167 µM

Q: Does B18 bind?
A: no binding

Q: Does B19 bind?
A: no binding

Q: Does B20 bind?
A: no binding

Q: With B39 as the binder, how does the Kd read?
A: 0.0159 µM

Q: Does B23 bind?
A: no binding

Q: Does B24 bind?
A: no binding

Q: Does B25 bind?
A: no binding
